System: MS2 coat protein
Test: apparent KD of MS2 coat protein; designed switch direction (-1 OFF switch, 1 ON switch): -1; higher = weaker reporter binding
Method in brief: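 An oligonucleotide input, 200 uM small-molecule ligand, or no input was present during titration of SNAP-549-labelled MS2 coat protein, which was doubled from 0.7 or 1.5 nM to 3 µM. Designed RNA switches had been transcribed on Illumina chips by stalled E. coli RNA polymerase. Apparent KD per design is the median over clusters of curves fitted to normalised cluster fluorescence.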

[1] = input ligand: microRNA oligo, concentration not stated
[2] = Eterna round: R95, input ligand: microRNA oligo, concentration not stated
[3] = Eterna round: R95, input ligand: FMN 200 uM
[4] = Eterna round: R95, input ligand: none

Sequence | apparent KD of MS2 coat protein [1] | apparent KD of MS2 coat protein [2] | apparent KD of MS2 coat protein (input ligand: FMN 200 uM) | apparent KD of MS2 coat protein (input ligand: none) | apparent KD of MS2 coat protein [3] | apparent KD of MS2 coat protein [4]
AGCUGUGGCCGAGGAUAUCUAAAACUCAAAACCGAAAUAUAAUCGGACAUGAGGAUCACCCAUGUAGAGAAGGCGGUCUCAGCA [Eli eng2 - 078] (Eterna round: R96, puzzle: Exclusion NG 2) | 59.4 nM |  |  |  |  | 
AGUAACAGAGGAUAUACUAUUUUAUGUGUUUAUUGUUUUGAACAUGAGGAUCACCCAUGUAGAAGGCUGAAUAA [JMF 95] (puzzle: Exclusion 2) |  | 24.5 nM |  |  |  | 
GGCCGUAAUAAGGAUAUCACUAGCCUCGGCUAGUGAGAAGGUAUUACAUGAGGAUCACCCAUGUGGUCAGGCCA [E6/4-B2] (Eterna round: R97, puzzle: Exclusion 6) |  |  | 903 nM | 285 nM |  | 
ACCCAACAUGAGGAUCACCCAUGUCAGGAUAUCCAAGCGAAAGCAAAAGCGAAAGCAAGGAGAAGGGACAGAGG [ChP 04-04-2015 #6] (puzzle: Exclusion 1) |  | 90 nM |  |  | 308 nM | 180 nM
AAUAACAGAGGAUAUACUAUUUUAUGUAUUUAUUAUUUUGAACAUGAGGAUCACCCAUGUAGAAGGCUGAAUGA [JMF 62] (puzzle: Exclusion 2) |  | 24.4 nM |  |  |  | 
CUUCAAGCACCAGAGCUCACACUUAUACCUGCUCUGGUGACAUGAGGAUCACCCAUGUUUUUUGCCCGUCUUAUCUU [Sensor v3, turn-off variant 2 (MOD of Leso v.2)] (Eterna round: R96, puzzle: Sensor v3, turn-off variant 2) | 101 nM |  | 178 nM | 250 nM |  | 
UUAUUUAGUGUGAGGAUAUGCUGGUCGAUAGAUCAGCAGAAGGCACAUGAGGAUCACCCAUGUAAUAUAUUAAA [Mat - Exclusion 4 - JL Mod - D34] (puzzle: Brourd's mod of Exclusion 4) |  | 51.5 nM |  |  |  | 
GGUCGGCGAGGAUAUACAUGAGGAUCACCCAUGUGAUAGAGUGCACGCGUACGUGUACGUAGAAGGCGCUGACG [JL-ex3-3.28 salish99 mod] (puzzle: Exclusion 3) |  | 13.2 nM |  |  | 26.4 nM | 12.5 nM
UCUUACUGAGGAUAUACUUAGAUUUACAUGAGGAUCACCCAUGUUCCUCUAUGUAUAUAUGUAGAAGGCAGAAGAA [Mat - Exclusion 5 - JL Mod - D46] (Eterna round: R97, puzzle: Exclusion 5) |  |  | 241 nM | 37.1 nM |  | 
AGCUAGAUAGGAUAUGCCCGGGAUAACAUGAGGAUCACCCAUGUGACCGAUUCAUGUCCAGCAGAAGGGUUUGGGA [Mod of ViennaUCT 8 - Jieux - Exclusion 5] (Eterna round: R97, puzzle: Exclusion 5) |  |  | 17.1 nM | 16.7 nM |  | 
CAUGGGUGUGAGCCGCAUUACAUGAGGAUCACCCAUGUCAACAAGCUUUUUGCUUGUCUUACGCGGCGGCACCAAAA [Bimaus] (puzzle: Sensor v3, turn-off variant 1) |  | 9.65 nM |  |  | 17.4 nM | 14.9 nM
AGCUUUUUGUUUUUGGGUGACAUGAGGAUCACCCAUGUCUUAUGGGCCCAAUAAUAAUAAAAUAAAAGGGACCCACG [-20.8, -41.27, a 31%] (Eterna round: R97, puzzle: Sensor, turn-off variant 1) |  |  | 457 nM | 208 nM |  | 
AGCUGUGGCCGAGGAUAUACACAUGAGGAUCACCCAUGUAGGUGCGGAUACUCGCACCAAUAAGUGUAGAAGGCGGUCUCAGCA [Eli eng2 - 057] (Eterna round: R96, puzzle: Exclusion NG 2) | 13.2 nM |  | 14.6 nM | 19.2 nM |  | 
UAAUGUGCGAGAGGAUAUCGUGUACAAAGUACACGAGAAGGCUUCACAUGAGGAUCACCCAUGUACCGAGGUGAAACACCUUGG [Omei Exc(NG)1 Bv1] (Eterna round: R96, puzzle: Exclusion NG 1) | 171 nM |  | 355 nM | 220 nM |  | 
AGUUAAGCAGGAUAUAUCCGGGAUAACAUGAGGAUCACCCAUGUGACCGCUUGAUAUCCUAUAGAAGGGCUUAAGA [Mod of ViennaUCT 25 - Jieux - Exclusion 5] (Eterna round: R97, puzzle: Exclusion 5) |  |  | 68.2 nM | 27.4 nM |  | 
AUAGUAGAAGUGAGGAUAUCGUAGAUUUUAGGAAACGAGAAGGCACAUGAGGAUCACCCAUGUAAGAUGGAGGU [JR_BMOE4_Sub051] (puzzle: Brourd's mod of Exclusion 4) |  | 263 nM |  |  | 104 nM | 124 nM
CGAUAAAGCUGAGGAUAUGAGAAUAGAAAGAAAUCAGAAGGCAGACAUGAGGAUCACCCAUGUGAGUUCUCGAGAUUAGAUAUU [Prohibition 47 - Jieux - Exclusion NG 1] (Eterna round: R96, puzzle: Exclusion NG 1) | 22.2 nM |  |  |  |  | 

Sequence | apparent KD of MS2 coat protein [1] | apparent KD of MS2 coat protein [2] | apparent KD of MS2 coat protein (input ligand: FMN 200 uM) | apparent KD of MS2 coat protein (input ligand: none) | apparent KD of MS2 coat protein [3] | apparent KD of MS2 coat protein [4]
AACCUGAGGCUUUGCUUUAGGUGUACAUGAGGAUCACCCAUGUAGGAUAUGGUAGGCUUUGCUUACCAGAAGGACAUAAUGAUG [JL ENG3 1.16] (Eterna round: R96, puzzle: Exclusion NG 3) | 30.6 nM |  | 81.1 nM | 55.2 nM |  | 
AAGGGACAUGAGGAUCACCCAUGUGAGGAUAUGCUAUGGAAAAUAAAAAAUAAACAUAGCAGAAGGCAUAAAAA [Mat - Exclusion 1 - Eli mod - D37] (Eterna round: R96, puzzle: Exclusion 1) | 65.3 nM |  | 89.2 nM | 99.2 nM |  | 
UGGUAACAUGAGGAUCACCCAUGUCAGGAUAUCAGUAAGAAUAGAUUAGAUUAGAAGAUGAGAAGGGACUAUAU [Excluse me! 5 - Jieux - Exclusion 1] (puzzle: Exclusion 1) |  | 32 nM |  |  | 27.6 nM | 36.7 nM
CAAAACCGAGGAUAUACUUCGGAGAUAAAGGUAAGUCAAAGACUUGAGGAUCACCCAAGUAGAAGGCGGACGGA [Laeded] (Eterna round: R97, puzzle: Exclusion 2) |  |  | 95.5 nM | 22.4 nM |  | 
UAUCGGGACUGAGGAUAUUCGUUCGAACGCGAAGAAGAAGGUAGUGUCAGGGACAUGAGGAUCACCCAUGUGAUUUCAGUCCCA [JL ViennaUCT Erinle mod 5] (Eterna round: R96, puzzle: Exclusion NG 1) | 56.1 nM |  | 98.2 nM | 99 nM |  | 
UUAUAUAGAGUGAGGAUAUGCUGGUCCUUGGAUCAGCAGAAGGCACAUGAGGAUCACCCAUGUAAAAUAAUAUU [Mat - Exclusion 4 - JL Mod - D39] (puzzle: Brourd's mod of Exclusion 4) |  | 21.1 nM |  |  |  | 
GAGAUGUGAGGAUAUCUAGACCGCGGCAGAGCUGCGGUCCGAGAGAAGGCACAUGAGGAUCACCCAUGUGAUGA [Beriesan] (puzzle: Exclusion 4) |  | 47.3 nM |  |  |  | 
UCGAGUGGUUAGGAUAUCAUUGGUGCAUAUCAUUGAGAAGGAACUACAUGAGGAUCACCCAUGUGGCAGUGAUA [Abezaso] (puzzle: Exclusion 6) |  | 23.9 nM |  |  |  | 
ACAUGUCAUUGAGGAUAUUGCACACAUGAGGAUCACCCAUGUAUACGGUUGCUCUUACGUGAGUUCGAGAAGGCGAUGUACAUU [Ex NG2 #88] (Eterna round: R96, puzzle: Exclusion NG 2) | 123 nM |  | 153 nM | 181 nM |  | 
GAAAAGGUAGAGGAUAUUUCAGGUCAAAGCUGCAAAGAAGGCUGCACAUGAGGAUCACCCAUGUGGUCUUAAAA [Mod of Quesina 7 - Jieux - Exclusion 6] (Eterna round: R97, puzzle: Exclusion 6) |  |  | 90.4 nM | 25.7 nM |  | 
AAGAUUAGGAAAGGAUAUAAAGAGAAACAAAGUGCACAUGAGGAUCACCCAUGUACUGACACGCGUUAGAAGGUUCCAGUCCUC [Eternabot solution 40] (Eterna round: R96, puzzle: Exclusion NG 2) | 15.5 nM |  | 18.1 nM | 25.4 nM |  | 
CUGCUGGAGCUUCGCUUUGGUCGUACAUGAGGAUCACCCAUGUAGGAUAUGGUAAAAUUCGCCUGCUAGAAGGAUAGAGUGGUC [salish99_ExNG3_r04_619] (Eterna round: R96, puzzle: Exclusion NG 3) | 80.1 nM |  |  |  |  | 
ACAUGAGGAUCACCCAUGUGAAAAGAAUGGCUGACACAGAGAUAGGAUAUAUGUGCAUAUCUAACGUAGAAGGGUCAUGACUGG [Deportation 78 - Jieux - Exclusion NG 3] (Eterna round: R96, puzzle: Exclusion NG 3) | 26.5 nM |  |  |  |  | 
UUGGUUGGUGUAGGAUAUGUAUGAGGAUCACCCAUUAAUAAAUUUUAACCACGAGGAUCACCCGUGUAGAAGGACAUUGGUUAU [pwkr exNG2 2xF5 1xFMN.22] (Eterna round: R96, puzzle: Exclusion NG 2) | 42.1 nM |  | 52 nM | 57.4 nM |  | 
CCGGAAAUGAAGGAUAUAGGAGUCGAUAGACACCUAGAAGGUCAUACAUGAGGAUCACCCAUGUGUCCUACCGG [Fiskers Ex 6 - 78] (puzzle: Exclusion 6) |  | 14.9 nM |  |  |  | 
GCACGGUUGGUAGGAUAUCCUUGCGAUUAGCAAGGAGAAGGACCACAUGAGGAUCACCCAUGUACCUCAAUUAUCCUUCCGUGC [Eli exng1 - 025] (Eterna round: R96, puzzle: Exclusion NG 1) | 10.9 nM |  | 13.7 nM | 14.9 nM |  | 
GCACAGGCAGGAUAUACAUGAGGAUCACCCAUGUGACCCUUGAUGUACUCGCGUACACGUAGAAGGGCCUGUGC [Omei Ex3 Model Bachelor's Dilema v41] (Eterna round: R97, puzzle: Exclusion 3) |  |  | 633 nM | 407 nM |  | 

— the supplement of paper PMC9170038
